Source: paper PMC5436757, “In vivo and in vitro characterization of DdrC, a DNA damage response protein in Deinococcus radiodurans bacterium”

Experiments:
DdrC [1] = biological target: T1, DdrC (Deinococcus radiodurans R1 ATCC 13939, UniProt Q9RYE6 1-231); test: EMSA; same efficiency as 37% GC 81-mer; DdrC 0.175-2.8 uM; Buffer A: 40 mM Tris-HCl pH 7.8, 5 mM MgCl2, 1.5 mM DTT, 50 mM NaCl, 12% glycerol; 4 C (15 min stated for plasmid/viral DNA); gels run at 4 C; details: protein: recombinant; tags: C-terminal 6xHis (pET26b); label: 5' Cy5
T1 sequence: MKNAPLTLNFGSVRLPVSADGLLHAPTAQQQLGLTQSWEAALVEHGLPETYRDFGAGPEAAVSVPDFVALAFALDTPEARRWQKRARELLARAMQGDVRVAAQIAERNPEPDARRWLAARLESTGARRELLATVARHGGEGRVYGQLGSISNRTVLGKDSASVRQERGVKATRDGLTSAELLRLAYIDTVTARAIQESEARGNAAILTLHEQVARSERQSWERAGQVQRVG

DdrC [2] = biological target: T1, DdrC; test: EMSA; same efficiency as 65.4% GC 81-mer; DdrC 0.175-2.8 uM; Buffer A: 40 mM Tris-HCl pH 7.8, 5 mM MgCl2, 1.5 mM DTT, 50 mM NaCl, 12% glycerol; 4 C (15 min stated for plasmid/viral DNA); gels run at 4 C; details: protein: recombinant; tags: C-terminal 6xHis (pET26b); label: 5' Cy5
DdrC [3] = biological target: T1, DdrC; test: EMSA; discrete complex band appears at 40 nM DdrC; 3.3 nM DNA; Buffer A: 40 mM Tris-HCl pH 7.8, 5 mM MgCl2, 1.5 mM DTT, 50 mM NaCl, 12% glycerol; 4 C (15 min stated for plasmid/viral DNA); gels run at 4 C; details: protein: recombinant; tags: C-terminal 6xHis (pET26b)

B1: 81-mer 65.4% GC (ssDNA)
DNA: GTTGCTGGACGTACAGCGCCACTATGGCCGCCTGGGCTGGACCAGCGGCGAGATTCCGTCCGGGGGCTACCAGTTTCCCAT
B1: binds (DdrC [1]).

B2: 81-mer 37% GC (ssDNA)
DNA: GATTACCACGAGGAGTATCTTAAGAATTCTGATATACTTGAAGAAGACATACAGGAACAAGAACAAAGACTGAACGAGCTT
B2: binds (DdrC [2]).

B3: oligo-67 ss (ssDNA)
DNA: CTGTTTAAGAAATTCACCTCGAAAGCAAGCTGATAAACCGATACAATTAAAGGCTCCTTTTGGAGCC
B3: binds (DdrC [3]).
